Changes are numbered by the printed parent chain. Names and notes keep the numbering of the source.

These results are taken from PMC5700162, “Structural insights into the committed step of bacterial phospholipid biosynthesis” (Nature Communications, 2017).

B1: aaPlsY (Aquifex aeolicus VF5) (protein)
chain: MKALFLVIFAYLLGSITFGEVIAKLKGVDLRNVGSGNVGATNVTRALGKKYGVLVFFLDFLKGFIPALIAVKSFGIDSWVLTFTGLASVLGHMYPVFFGFKGGKGVATALGVVFAVSPSVALFSFLVWLGIFLWKRYVSLASITATISAFLFLFVAGYPVNVLFMAIVIGALIIYRHRENINRLLTGREHRF
notes: full length, 192 residues, monomer, codon-optimised gene, E. coli BL21(DE3); assays: C-terminal His8 tag (p3EC); crystals: C-terminal His-eGFP removed by 3C protease; DDM-purified, reconstituted in lipid cubic phase
B2: aaPlsY (Aquifex aeolicus VF5; R45A) (protein)
chain: B1 chain with R45A
notes: as for B1
B3: aaPlsY (Aquifex aeolicus VF5; S35A) (protein)
chain: B1 chain with S35A
notes: as for B1
B4: aaPlsY (Aquifex aeolicus VF5; K104A) (protein)
chain: B1 chain with K104A
notes: as for B1
B5: aaPlsY (Aquifex aeolicus VF5; N180A) (protein)
chain: B1 chain with N180A
notes: as for B1
B6: aaPlsY (Aquifex aeolicus VF5; H177A) (protein)
chain: B1 chain with H177A
notes: as for B1
B7: aaPlsY (Aquifex aeolicus VF5; H92A) (protein)
chain: B1 chain with H92A
notes: as for B1
B8: aaPlsY (Aquifex aeolicus VF5; N37A) (protein)
chain: B1 chain with N37A
notes: as for B1
B9: aaPlsY (Aquifex aeolicus VF5; E189A) (protein)
chain: B1 chain with E189A
notes: as for B1
B10: aaPlsY (Aquifex aeolicus VF5; T41A) (protein)
chain: B1 chain with T41A
notes: as for B1
B11: aaPlsY (Aquifex aeolicus VF5; S142A) (protein)
chain: B1 chain with S142A
notes: as for B1

Substrate in one series: O=P(O)(O)OC[C@H](O)CO
In words: coupled MDCC-PBP Pi-biosensor fluorescence assay in lipid cubic phase (monoolein). Type of series: biochemical, Aquifex aeolicus. As to conditions: co-substrate 1.8 mol% 16:0-P, pH 8.0, 30 °C, 0-50 mM G3P.
As to B1, the Km (usually the concentration of substrate that gives half-maximal velocity) was 1.39 mM; the kcat – broadly, the number of substrate molecules converted per active site and unit of time at saturation – was 13.4 s⁻¹.

Substrate in another series: O=P(O)(O)OC[C@H](O)CO
The series is described as above. The series is classed as biochemical, Aquifex aeolicus. The note with it: co-substrate 3.3-5.2 mol% 16:0-P, pH 8.0, 30 °C, no technical replicates. The source says: coupled MDCC-PBP Pi-biosensor fluorescence assay in lipid cubic phase (monoolein) on […]
As to B2, the Michaelis constant (Km) turned out to be 50.46 mM and the kcat is 0.15 s⁻¹. Turning to B3, the Michaelis-Menten constant (Km) is listed as 13.75 mM and the kcat stood at 0.64 s⁻¹. For B4 the same measures were 6.58 mM and 1 s⁻¹.

For B5, the Km was found to be 26.31 mM and the kcat came to 0.62 s⁻¹. With B6, the Km was determined as 9.24 mM and the kcat stood at 0.88 s⁻¹.

Take B7: the Michaelis constant (Km) is given as 2.64 mM and the kcat was 2.37 s⁻¹. For B8 the same measures were 3.04 mM and 2.49 s⁻¹. For B9 the same measures were 5.79 mM and 18.5 s⁻¹. For B10 the same measures were 0.43 mM and 0.64 s⁻¹.

On to B11, for which the Michaelis-Menten constant (Km) is on record as 2.89 mM and the kcat is 4.29 s⁻¹.

The target in another series is T1, aaPlsY (Aquifex aeolicus, UniProt O66905). The description is as above. As to conditions: co-substrate 30 mM glycerol phosphate; pH 8.0, 30 °C; 0-2 mol% 16:0-P in the lipid phase. The series is classed as biochemical. Set-up: gene plsY; full length, 192 residues, monomer, codon-optimised gene, E. coli BL21(DE3); assays: C-terminal His8 tag (p3EC); crystals: C-terminal His-eGFP removed by 3C protease; DDM-purified, reconstituted in lipid cubic phase.
For the molecule `CCCCCCCCCCCCCCCC(=O)OP(=O)(O)O` [16:0-P, palmitoyl phosphate], the “apparent Km” value is on record as 0.1 mol% (relative to monoolein).

A further series deals with T1, aaPlsY.
Experiment: not given
Further details: gene plsY. As to conditions: 7.8 MAG LCP with 0.4 M Na2HPO4, pH 7.0; three phosphates from phosphate hole to phosphate clamp.
As for `O=P(O)(O)O` [Pi, inorganic phosphate], the “X-ray crystal structure, 1.83 Å” value was “three phosphates are trapped in a positive patch stretching from the phosphate hole”.
